Earlier results as cited in US20200069786A1, “COMPOSITION AND PROCESS FOR PREPARING VACCINE” (TREOS BIO ZRT., priority 2018, published 2020).
Read-outs that look alike come from different tables or passages of the source.

Test system: TSA
Conditions: for TSA Expression Rate (ER): BREAST
[1] = TSA expression rate in MELANOMA
[2] = TSA expression rate in PEDIATRIC
[3] = TSA expression rate in PROSTATE cancer

B1: XAGE-2 (protein, UniProt Q96GT9 1-111, looked up)
X antigen family member 2: MSWRGRSTYRPRPRRSLQPPELIGAMLEPTDEEPKEEKPPTKSRNPTPDQKREDDQGAAEIQVPDLEADLQELCQTKTGDGCEGGTDVKGKILPKAEHFKMPEAGEGKSQV
- Expression Rate (ER) % (TSA expression rate in HEAD and NECK): 6%
- Expression Rate (ER) % [1]: 14%
- Expression Rate (ER) % [2]: 14%

B2: PAGE4 (protein, UniProt O60829 1-102, looked up)
P antigen family member 4: MSARVRSRSRGRGDGQEAPDVVAFVAPGESQQEEPPTDNQDIEPGQEREGTPPIEERKVEGDCQEMDLEKTRSERGDGSDVKEKTPPNPKHAKTKEAGDGQP
- Expression Rate (ER) % (TSA expression rate in CRC): 33%
- Expression Rate (ER) % [3]: 100%

B3: MCAK (protein, UniProt Q99661 2-725, looked up)
Kinesin-like protein KIF2C: AMDSSLQARLFPGLAIKIQRSNGLIHSANVRTVNLEKSCVSVEWAEGGATKGKEIDFDDVAAINPELLQLLPLHPKDNLPLQENVTIQKQKRRSVNSKIPAPKESLRSRSTRMSTVSELRITAQENDMEVELPAAANSRKQFSVPPAPTRPSCPAVAEIPLRMVSEEMEEQVHSIRGSSSANPVNSVRRKSCLVKEVEKMKNKREEKKAQNSEMRMKRAQEYDSSFPNWEFARMIKEFRATLECHPLTMTDPIEEHRICVCVRKRPLNKQELAKKEIDVISIPSKCLLLVHEPKLKVDLTKYLENQAFCFDFAFDETASNEVVYRFTARPLVQTIFEGGKATCFAYGQTGSGKTHTMGGDLSGKAQNASKGIYAMASRDVFLLKNQPCYRKLGLEVYVTFFEIYNGKLFDLLNKKAKLRVLEDGKQQVQVVGLQEHLVNSADDVIKMIDMGSACRTSGQTFANSNSSRSHACFQIILRAKGRMHGKFSLVDLAGNERGADTSSADRQTRMEGAEINKSLLALKECIRALGQNKAHTPFRESKLTQVLRDSFIGENSRTCMIATISPGISSCEYTLNTLRYADRVKELSPHSGPSGEQLIQMETEEMEACSNGALIPGNLSKEEEELSSQMSSFNEAMTQIRELEEKAMEELKEIIQQGPDWLELSEMTEQPDYDLETFVNKAESALAQQAKHFSALRDVIKALRLAMQLEEQASRQISSKKRPQ
- Expression Rate (ER) % (TSA expression rate in CRC): 100%

B4: NR6A1 (protein, UniProt Q15406 1-480, looked up)
Nuclear receptor subfamily 6 …: MERDEPPPSGGGGGGGSAGFLEPPAALPPPPRNGFCQDELAELDPGTISVSDDRAEQRTCLICGDRATGLHYGIISCEGCKGFFKRSICNKRVYRCSRDKNCVMSRKQRNRCQYCRLLKCLQMGMNRKAIREDGMPGGRNKSIGPVQISEEEIERIMSGQEFEEEANHWSNHGDSDHSSPGNRASESNQPSPGSTLSSSRSVELNGFMAFREQYMGMSVPPHYQYIPHLFSYSGHSPLLPQQARSLDPQSYSLIHQLLSAEDLEPLGTPMLIEDGYAVTQAELFALLCRLADELLFRQIAWIKKLPFFCELSIKDYTCLLSSTWQELILLSSLTVYSKQIFGELADVTAKYSPSDEELHRFSDEGMEVIERLIYLYHKFHQLKVSNEEYACMKAINFLNQDIRGLTSASQLEQLNKRYWYICQDFTEYKYTHQPNRFPDLMMCLPEIRYIAGKMVNVPLEQLPLLFKVVLHSCKTSVGKE
- Expression Rate (ER) % [3]: 25%

B5: PRSS55 (protein, UniProt Q6UWB4 19-352, looked up)
Serine protease 55: GPRTPLPEAGVAILGRARGAHRPQPPHPPSPVSECGDRSIFEGRTRYSRITGGMEAEVGEFPWQVSIQARSEPFCGGSILNKWWILTAAHCLYSEELFPEELSVVLGTNDLTSPSMEIKEVASIILHKDFKRANMDNDIALLLLASPIKLDDLKVPICLPTQPGPATWRECWVAGWGQTNAADKNSVKTDLMKAPMVIMDWEECSKMFPKLTKNMLCAGYKNESYDACKGDSGGPLVCTPEPGEKWYQVGIISWGKSCGEKNTPGIYTSLVNYNLWIEKVTQLEGRPFNAEKRRTSVKQKPMGSPVSGVPEPGSPRSWLLLCPLSHVLFRAILY
- Expression Rate (ER) % [3]: 1%

B6: TSP50 (protein, UniProt Q9UI38 40-385, looked up)
Probable threonine protease …: AGEAPGALSTADPADQSVQCVPKATCPSSRPRLLWQTPTTQTLPSTTMETQFPVSEGKVDPYRSCGFSYEQDPTLRDPEAVARRWPWMVSVRANGTHICAGTIIASQWVLTVAHCLIWRDVIYSVRVGSPWIDQMTQTASDVPVLQVIMHSRYRAQRFWSWVGQANDIGLLKLKQELKYSNYVRPICLPGTDYVLKDHSRCTVTGWGLSKADGMWPQFRTIQEKEVIILNNKECDNFYHNFTKIPTLVQIIKSQMMCAEDTHREKFCYELTGEPLVCSMEGTWYLVGLVSWGAGCQKSEAPPIYLQVSSYQHWIWDCLNGQALALPAPSRTLLLALPLPLSLLAAL
- Expression Rate (ER) % (TSA expression rate in CRC): 89%
- Expression Rate (ER) % (TSA expression rate in GASTRIC cancer): 57%

B7: ODF3 (protein, UniProt Q96PU9 1-254, looked up)
Ciliary microtubule …: MTEEVWMGTWRPHRPRGPIMALYSSPGPKYLIPPTTGFMKHTPTKLRAPAYSFRGAPMLLAENCSPGPRYNVNPKILRTGKDLGPAYSILGRYQTKTMLTPGPGDYFPEKSTKYVFDSAPSHSISARTKAFRVDSTPGPAAYMLPMVMGPNTVGKASQPSFSIKGRSKLGGFSDDLHKTPGPAAYRQTDVRVTKFKAPQYTMAARVEPPGDKTLKPGPGAHSPEKVTLTKPCAPVVTFGIKHSDYMTPLLVDVE
- TSA Expression Rate (ER): 0%
- Expression Rate (ER) % [3]: 0%

B8: ODF2 (protein, UniProt Q5BJF6 1-829, looked up)
Outer dense fiber protein 2: MSASSSGGSPRFPSCGKNGVTSLTQKKVLRAPCGAPSVTVTKSHKRGMKGDTVNVRRSVRVKTKVPWMPPGKSSARPVGCKWENPPHCLEITPPSSEKLVSVMRLSDLSTEDDDSGHCKMNRYDKKIDSLMNAVGCLKSEVKMQKGERQMAKRFLEERKEELEEVAHELAETEHENTVLRHNIERMKEEKDFTILQKKHLQQEKECLMSKLVEAEMDGAAAAKQVMALKDTIGKLKTEKQMTCTDINTLTRQKELLLQKLSTFEETNRTLRDLLREQHCKEDSERLMEQQGALLKRLAEADSEKARLLLLLQDKDKEVEELLQEIQCEKAQAKTASELSKSMESMRGHLQAQLRSKEAENSRLCMQIKNLERSGNQHKAEVEAIMEQLKELKQKGDRDKESLKKAIRAQKERAEKSEEYAEQLHVQLADKDLYVAEALSTLESWRSRYNQVVKEKGDLELEIIVLNDRVTDLVNQQQTLEEKMREDRDSLVERLHRQTAEYSAFKLENERLKASFAPMEDKLNQAHLEVQQLKASVKNYEGMIDNYKSQVMKTRLEADEVAAQLERCDKENKILKDEMNKEIEAARRQFQSQLADLQQLPDILKITEAKLAECQDQLQGYERKNIDLTAIISDLRSRIEHQGDKLEMAREKHQASQKENKQLSLKVDELERKLEATSAQNIEFLQVIAKREEAIHQSQLRLEEKTRECGTLARQLESAIEDARRQVEQTKEHALSKERAAQNKILDLETQLSRTKTELSQLRRSRDDADRRYQSRLQDLKDRLEQSESTNRSMQNYVQFLKSSYANVFGDGPYSTFLTSSPIRSRSPPA
- Expression Rate (ER) % [3]: 10%

B9: SART3 (protein, UniProt Q15020 2-963, looked up)
Spliceosome associated factor …: ATAAETSASEPEAESKAGPKADGEEDEVKAARTRRKVLSRAVAAATYKTMGPAWDQQEEGVSESDGDEYAMASSAESSPGEYEWEYDEEEEKNQLEIERLEEQLSINVYDYNCHVDLIRLLRLEGELTKVRMARQKMSEIFPLTEELWLEWLHDEISMAQDGLDREHVYDLFEKAVKDYICPNIWLEYGQYSVGGIGQKGGLEKVRSVFERALSSVGLHMTKGLALWEAYREFESAIVEAARLEKVHSLFRRQLAIPLYDMEATFAEYEEWSEDPIPESVIQNYNKALQQLEKYKPYEEALLQAEAPRLAEYQAYIDFEMKIGDPARIQLIFERALVENCLVPDLWIRYSQYLDRQLKVKDLVLSVHNRAIRNCPWTVALWSRYLLAMERHGVDHQVISVTFEKALNAGFIQATDYVEIWQAYLDYLRRRVDFKQDSSKELEELRAAFTRALEYLKQEVEERFNESGDPSCVIMQNWARIEARLCNNMQKARELWDSIMTRGNAKYANMWLEYYNLERAHGDTQHCRKALHRAVQCTSDYPEHVCEVLLTMERTEGSLEDWDIAVQKTETRLARVNEQRMKAAEKEAALVQQEEEKAEQRKRARAEKKALKKKKKIRGPEKRGADEDDEKEWGDDEEEQPSKRRRVENSIPAAGETQNVEVAAGPAGKCAAVDVEPPSKQKEKAASLKRDMPKVLHDSSKDSITVFVSNLPYSMQEPDTKLRPLFEACGEVVQIRPIFSNRGDFRGYCYVEFKEEKSALQALEMDRKSVEGRPMFVSPCVDKSKNPDFKVFRYSTSLEKHKLFISGLPFSCTKEELEEICKAHGTVKDLRLVTNRAGKPKGLAYVEYENESQASQAVMKMDGMTIKENIIKVAISNPPQRKVPEKPETRKAPGGPMLLPQTYGARGKGRTQLSLLPRALQRPSAAAPQAENGPAAAPAVAAPAATEAPKMSNADFAKLFLRK
- Expression Rate (ER) % [2]: 73%

B10: SPATA19 (protein, UniProt Q7Z5L4 25-167, looked up)
Spermatogenesis-associated …: SSDIDVVESEAVSVLHHWLKKTEEEASRGIKEKLSINHPSQGVREKMSTDSPPTHGQDIHVTRDVVKHHLSKSDLLANQSQEVLEERTRIQFIRWSHTRIFQVPSEMTEDIMRDRIEQVRRSISRLTDVSAQDFSMRPSSSDC
- Expression Rate (ER) % [3]: 88%

B11: BAGE-3 (protein, UniProt Q86Y29 18-109, looked up)
B melanoma antigen 3: RLMKEESPVVSWRLEPEDGTALDVHFVSTLEPLSNAVKRNVPRCIIILVLQEPTPFRISVTSSCFVQNTLTKLLKDRRKMQTVQCATAQETS
- Expression Rate (ER) % [1]: 14%

B12: PAGE1 (protein, UniProt O75459 1-146, looked up)
P antigen family member 1: MGFLRRLIYRRRPMIYVESSEESSDEQPDEVESPTQSQDSTPAEEREDEGASAAQGQEPEADSQELVQPKTGCELGDGPDTKRVCLRNEEQMKLPAEGPEPEADSQEQVHPKTGCERGDGPDVQELGLPNPEEVKTPEEDEGQSQP
- Expression Rate (ER) % (TSA expression rate in CRC): 0%

B13: TEX101 (protein, UniProt Q9BY14 26-222, looked up)
Testis-expressed protein 101: LYCQKGLSMTVEADPANMFNWTTEEVETCDKGALCQETILIIKAGTETAILATKGCIPEGEEAITIVQHSSPPGLIVTSYSNYCEDSFCNDKDSLSQFWEFSETTASTVSTTLHCPTCVALGTCFSAPSLPCPNGTTRCYQGKLEITGGGIESSVEVKGCTAMIGCRLMSGILAVGPMFVREACPHQLLTQPRKTEN
- TSA Expression Rate (ER): 0%

B14: ODF1 (protein, UniProt Q14990 1-250, looked up)
Outer dense fiber protein 1: MAALSCLLDSVRRDIKKVDRELRQLRCIDEFSTRCLCDLYMHPYCCCDLHPYPYCLCYSKRSRSCGLCDLYPCCLCDYKLYCLRPSLRSLERKAIRAIEDEKRELAKLRRTTNRILASSCCSSNILGSVNVCGFEPDQVKVRVKDGKVCVSAERENRYDCLGSKKYSYMNICKEFSLPPCVDEKDVTYSYGLGSCVKIESPCYPCTSPCSPCSPCSPCNPCSPCNPCSPYDPCNPCYPCGSRFSCRKMIL
- Expression Rate (ER) % [3]: 10%
